Consider 40 variants from the MegaScale stability set (Tsuboyama et al. 2023).

B1: 2M8U (parent)
chain: TKAQVIEAFKVFDRDGNGYVTVDYLRKVLNELGDMMPADEIEEMIYEADPQNSGYVQYETFVGMLFL

The series covers variants of B1. The experiment in a line: folding stability dG (cDNA display proteolysis); higher = more stable. The following applies: PBS, room temperature.
Take TKAQVIEAFKVFDRDGNGYVTVDMLRKVLNELGDMMPADEIEEMIYEADPQNSGYVQYETFVGMLFL [Y24M]: the “folding stability dG” value amounted to 4.04 kcal/mol.

TKAQVIEAFKVFDRDGNGYVTVDGLRKVLNELGDMMPADEIEEMIYEADPQNSGYVQYETFVGMLFL [Y24G]: the “folding stability dG” value was 3.47 kcal/mol.

As to TKAQCIEAFKVFDRDGNGYVTVDYLRKVLNELGDMMPADEIEEMIYEADPQNSGYVQYETFVGMLFL [V5C], the “folding stability dG” value was 3.17 kcal/mol.

TKAQVIEAFKVFDRDGNGYVTVDYLRKVLNELGDMMPADEIEEMIYEADPQNLGYVQYETFVGMLFL [S53L]: the “folding stability dG” value was 3.2 kcal/mol.

For the variant TKAQVIEAFKVFDRDGNGYVTVDYLRKVLNELGDMMPADEICEMIYEADPQNSGYVQYETFVGMLFL [E42C], the “folding stability dG” value is 3.11 kcal/mol.

With TKAQVIEAFKVFDRDGNGYVTVDYLRKVLNELGDMMPADEIGEMIYEADPQNSGYVQYETFVGMLFL [E42G], the “folding stability dG” value is 3.04 kcal/mol.

TKAQVIEAFKVFDRDGNGYVTVDYLRKVLNELGDMMPADEILEMIYEADPQNSGYVQYETFVGMLFL [E42L]: the “folding stability dG” value turned out to be 3.16 kcal/mol.

Turning to TKAQVIEAFKVFDRDGNGYVTVDYLRKVLNELGDMMPAMEIEEMIYEADPQNSGYVQYETFVGMLFL [D39M], the “folding stability dG” value was 3.92 kcal/mol.

Turning to TKAQVIEAFKVFDRDGNGYVTVDYLRKVLNALGDMMPADEIEEMIYEADPQNSGYVQYETFVGMLFL [E31A], the “folding stability dG” value was determined as 3.47 kcal/mol.

With TKAQVIEAFKVFDRDGNGYVTVDYLRKVLNKLGDMMPADEIEEMIYEADPQNSGYVQYETFVGMLFL [E31K], the “folding stability dG” value came out at 3.49 kcal/mol.

TKAQVIEAFKVFDRDGNGYVTVDYLRKVLNELGDMMPADEIEEMIYEADPQNSGYVQEETFVGMLFL [Y58E]: the “folding stability dG” value is 1.4 kcal/mol.

With TKAQVIEAFKVFDRDGNGYTTVDYLRKVLNELGDMMPADEIEEMIYEADPQNSGYVQYETFVGMLFL [V20T], the “folding stability dG” value came to 3.33 kcal/mol.

TKAQVIEAFKVFDRDGNGYSTVDYLRKVLNELGDMMPADEIEEMIYEADPQNSGYVQYETFVGMLFL [V20S]: the “folding stability dG” value turned out to be 2.45 kcal/mol.

In the case of TKAQVIEAFKVFDRDGNGYVTVDYLRKVLNELGDMMPADEIEEMIYEADPQNSGYVQYETFVGMLLL [F66L], the “folding stability dG” value was determined as 2.59 kcal/mol.

In the case of TKAQVIEAFKVFDRDGNGYVTVDYLRKVLNELGDMMPADEIEEMIYEADPQNSGYVQYETFPGMLFL [V62P], the “folding stability dG” value stood at 1.22 kcal/mol.

Take TKAQVIEAFKVFDRDGNGYVTVDYLRKVLNELGDMMPADEIEEMIYEADPQNSGYVQYETFYGMLFL [V62Y]: the “folding stability dG” value was found to be 2.11 kcal/mol.

Regarding TKAQVIEAFKVFDRDGNGYVTVDYLRKVLNELGDMMPADEIEEMIVEADPQNSGYVQYETFVGMLFL [Y46V], the “folding stability dG” value was found to be 3.5 kcal/mol.

Consider TKAQVIEAFKVFDRDGNGYVTVDYLRKVLNELGDMMPADEIEEMIDEADPQNSGYVQYETFVGMLFL [Y46D], for which the “folding stability dG” value was found to be 3.29 kcal/mol.

For TKAQVIEAFKVFDRDGNGYVTVDYLRKVLNELGDMMPADEIEEMIYEADPQNSGYVQYPTFVGMLFL [E59P], the “folding stability dG” value came out at 2.47 kcal/mol.

With TKAQVIERFKVFDRDGNGYVTVDYLRKVLNELGDMMPADEIEEMIYEADPQNSGYVQYETFVGMLFL [A8R], the “folding stability dG” value amounted to 3.6 kcal/mol.

As to TKAQVIEDFKVFDRDGNGYVTVDYLRKVLNELGDMMPADEIEEMIYEADPQNSGYVQYETFVGMLFL [A8D], the “folding stability dG” value was 2.49 kcal/mol.

As to TKAQVIEAFKVFDRDGIGYVTVDYLRKVLNELGDMMPADEIEEMIYEADPQNSGYVQYETFVGMLFL [N17I], the “folding stability dG” value worked out at 3.1 kcal/mol.

For TKAQVIEAFKVFDRDGNGYVTVDYLRKVLNEIGDMMPADEIEEMIYEADPQNSGYVQYETFVGMLFL [L32I], the “folding stability dG” value came out at 3.52 kcal/mol.

For TKAQVIEAFKVFDRDGNGYVTVDYLRKVLNENGDMMPADEIEEMIYEADPQNSGYVQYETFVGMLFL [L32N], the “folding stability dG” value was determined as 2.53 kcal/mol.

As for TKAQVIEAFKVFDRDGNGYVTVDYLRKVLNELGDMMPADEIEEMIYEADPQNSGYVQYETFVGALFL [M64A], the “folding stability dG” value turned out to be 3.21 kcal/mol.

Regarding TKAQVIEAFKVFDRDGNGYVTVDYLRKVLNELGDMMPNDEIEEMIYEADPQNSGYVQYETFVGMLFL [A38N], the “folding stability dG” value was 3.45 kcal/mol.

Turning to TKAQVIEAFKVFDRDGNGYVTVDYLRKVLNELGDMMPADEIEEMIYEAMPQNSGYVQYETFVGMLFL [D49M], the “folding stability dG” value stood at 2.71 kcal/mol.

Regarding TKAQVIEAFKVFDRDGNGYVTVDYLRKVLNELGDMMPADEIEEMIYEAKPQNSGYVQYETFVGMLFL [D49K], the “folding stability dG” value is 2.14 kcal/mol.

TKAQVIEAFKVFDRDGNGYVTVDYLRKVLNELGDMMPADEIEEMIYEALPQNSGYVQYETFVGMLFL [D49L]: the “folding stability dG” value is 2.43 kcal/mol.

As for TKAQVIEAFKVFDRDGNGYVLVDYLRKVLNELGDMMPADEIEEMIYEADPQNSGYVQYETFVGMLFL [T21L], the “folding stability dG” value came to 3.55 kcal/mol.

For TGAQVIEAFKVFDRDGNGYVTVDYLRKVLNELGDMMPADEIEEMIYEADPQNSGYVQYETFVGMLFL [K2G], the “folding stability dG” value was 2.52 kcal/mol.

As for TKAQVIEAFKVFDRDGNGYVTVDYLRFVLNELGDMMPADEIEEMIYEADPQNSGYVQYETFVGMLFL [K27F], the “folding stability dG” value turned out to be 3.58 kcal/mol.

TKAQVIEAFKVFDRDGNGYVTVDYLRCVLNELGDMMPADEIEEMIYEADPQNSGYVQYETFVGMLFL [K27C]: the “folding stability dG” value turned out to be 3.05 kcal/mol.

In the case of TKAQVIEAFKVFDRDGNGYVTVDYLRKVLNELGDMMPADEIEEMIYEADPQNSQYVQYETFVGMLFL [G54Q], the “folding stability dG” value turned out to be 2.29 kcal/mol.

For TKAQVIEAFKVFDRDGNGYVTVDYLRKVLNELGDMMPADEIEEMIYEADPQNSIYVQYETFVGMLFL [G54I], the “folding stability dG” value turned out to be 2.76 kcal/mol.

As for TKAQVIEAFKVFDRDGNGYVTVDYLRKVLNELGDMMPADEIEEMIYEADPQNSVYVQYETFVGMLFL [G54V], the “folding stability dG” value was found to be 2.48 kcal/mol.

For TKAQVIEAFKVFDRDGNGYVTVDYLWKVLNELGDMMPADEIEEMIYEADPQNSGYVQYETFVGMLFL [R26W], the “folding stability dG” value came out at 3.63 kcal/mol.

For the variant TKAQVIEAFKVFDRDGNGYVTVDYLHKVLNELGDMMPADEIEEMIYEADPQNSGYVQYETFVGMLFL [R26H], the “folding stability dG” value turned out to be 3.19 kcal/mol.

As for TKAQVIEAFKVFDRDGNGYVTGDYLRKVLNELGDMMPADEIEEMIYEADPQNSGYVQYETFVGMLFL [V22G], the “folding stability dG” value stood at 2.36 kcal/mol.

Consider TKAQVIEAFKVFDRDGNGYVTEDYLRKVLNELGDMMPADEIEEMIYEADPQNSGYVQYETFVGMLFL [V22E], for which the “folding stability dG” value came to 2.47 kcal/mol.
